Target: Rfa3 DNA-binding domain-E (DBD-E), OB domain, residues 1-99 (S. cerevisiae, UniProt P26755 1-99, fluorescent label NT-495 (Monolith NT protein-labeling Kit Blue-Cys) on free cysteine residues)
Experiment: MST

Rfa3 DNA-binding domain-E (DBD-E), OB domain, residues 1-99, sequence (P26755 1-99): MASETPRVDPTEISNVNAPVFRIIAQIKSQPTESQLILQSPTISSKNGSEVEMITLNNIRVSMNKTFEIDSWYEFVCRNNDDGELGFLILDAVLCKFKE

B1: Rfa1 DBD-A (residues 178-294) phosphomimetic S178D (domain or fragment)
chain: DQKTRPIFAIEQLSPYQNVWTIKARVSYKGEIKTWHNQRGDGKLFNVNFLDTSGEIRATAFNDFATKFNEILQEGKVYYVSKAKLQPAKPQFTNLTHPYELNLDRDTVIEECFDESN
- EC50: 36 µM

Source: article PMC6303327 (2018)
